This note sets out measurements from patent US20210371539A1 (Genmab, published 2021).

B1: IgG1-CD37-37.3-E430G (antibody, V domains shown)
VH: QVQVKESGPGLVAPSQSLSITCTVSGFSLTTSGVSWVRQPPGKGLEWLGVIWGDGSTNYHSALKSRLSIKKDHSKSQVFLKLNSLQTDDTATYYCAKGGYSLAHWGQGTLVTVSA
VL: DIQMTQSPASLSVSVGETVTITCRASENIRSNLAWYQQKQGKSPQLLVNVATNLADGVPSRFSGSGSGTQYSLKINSLQSEDFGTYYCQHYWGTTWTFGGGTKLEIKR
modifications: Conjugated to Alexa Fluor 555 or 647 in the FRET assays only (about 3 dyes per antibody, sites not stated).
notes: IgG1 kappa with E430G (EU numbering) in the Fc; also called hexamerization-enhanced CD37 antibody

For test [1], the target named is T1, Human CD37 (human, UniProt P11049 1-281).
T1 construct: Endogenous CD37 on the human lymphoma cell line Daudi; also called Leukocyte Antigen CD37; GP52-40
T1 sequence: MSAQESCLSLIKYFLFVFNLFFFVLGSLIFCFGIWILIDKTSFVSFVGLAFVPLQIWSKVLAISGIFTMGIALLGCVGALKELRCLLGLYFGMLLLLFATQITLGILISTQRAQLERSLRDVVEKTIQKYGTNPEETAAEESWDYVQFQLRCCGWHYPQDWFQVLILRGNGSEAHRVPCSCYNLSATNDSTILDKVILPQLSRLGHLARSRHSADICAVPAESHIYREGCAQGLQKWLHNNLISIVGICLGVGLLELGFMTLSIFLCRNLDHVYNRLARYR
Kind of test: conclusion from CDC assays on Daudi and WIL2-S cells.

Test [2] addresses T1, Human CD37. Kind of test: flow cytometry FRET with fluorophore-conjugated antibodies on Daudi cells. As to the method:
(§1) 0.5×10⁶ Daudi cells/well were incubated with 10 μg/mL A555-conjugated donor antibodies and/or 10 μg/mL A647-conjugated acceptor antibodies in a total volume of 100 μL RPMI/0.2% BSA in 96-well round-bottom plates (Greiner Bio-One, Cat No 650101) for 15 minutes at 37° C. in a water bath. Cells were washed twice with FACS buffer, pelleted by centrifugation (3 min at 300×g) and resuspended in 200 μL PBST. Mean fluorescence intensities (MFI) were determined by flow cytometry on a FACS Canto II (BD Biosciences) by recording 10,000 events at 585/42 nm (FL2, donor A555) and […] (FL3), both excited at 488 nm, and at 660/20 nm (FL4, acceptor A647), excited at 635 nm. Unquenched donor fluorescence intensity was determined from cells incubated with only A555-conjugated donor antibodies, and non-enhanced acceptor intensity was determined from cells incubated with only A647-conjugated acceptor antibodies. Proximity-induced FRET was determined by measuring the energy transfer between cells incubated with both A555-conjugated donor and A647-conjugated acceptor antibodies. MFI values were used to calculate FRET according to the following equation: energy transfer (ET)=FL3(D,A)−FL2(D,A)/a−FL4(D,A)/b, wherein a=FL2(D)/FL3(D), b=FL4(A)/FL3(A), D is donor, A is acceptor and FLn (D,A)=donor+acceptor. ET values obtained were normalized according to the following equation: normalized energy transfer (%)=100*ET/FL3(D, A).
In general terms: In flow cytometry, cells or beads pass a laser one at a time.

For test [3], the target named is T2, Human CD20 (human, UniProt P11836 1-297).
T2 construct: Endogenous CD20 on the human lymphoma cell line Daudi
T2 sequence: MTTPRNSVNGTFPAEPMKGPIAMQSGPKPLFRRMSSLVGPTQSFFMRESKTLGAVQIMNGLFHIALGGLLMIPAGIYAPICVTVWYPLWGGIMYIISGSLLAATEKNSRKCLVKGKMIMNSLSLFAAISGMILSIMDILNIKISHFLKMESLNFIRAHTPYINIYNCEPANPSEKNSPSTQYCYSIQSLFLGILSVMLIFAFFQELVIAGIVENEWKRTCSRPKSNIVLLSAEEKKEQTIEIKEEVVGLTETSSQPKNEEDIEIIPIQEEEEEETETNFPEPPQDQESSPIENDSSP
The test is described as above. As to the method: as §1

Test [4] addresses B1. Kind of test: FRET by flow cytometry, A555/A647-conjugated antibodies on Daudi cells; Fc-Fc interaction between cell-bound antibodies. As to the method:
as §1, with “ET values obtained were normalized according to the following equation: normalized energy transfer (%)=100*ET/FL3(D, A).” left out

As for B1, the binding result in test [1] is given as “binds”.

B2: IgG1-CD37-37.3 (antibody, V domains shown)
VH: QVQVKESGPGLVAPSQSLSITCTVSGFSLTTSGVSWVRQPPGKGLEWLGVIWGDGSTNYHSALKSRLSIKKDHSKSQVFLKLNSLQTDDTATYYCAKGGYSLAHWGQGTLVTVSA
VL: DIQMTQSPASLSVSVGETVTITCRASENIRSNLAWYQQKQGKSPQLLVNVATNLADGVPSRFSGSGSGTQYSLKINSLQSEDFGTYYCQHYWGTTWTFGGGTKLEIK
notes: Expressed as IgG1 kappa with wild type Fc; In the FRET assays it was conjugated to Alexa Fluor 555 or 647 (about 3 dye molecules per antibody)
On to B2, for which the binding result in test [2] is given as “binds”.

B3: IgG1-CD20-11B8-E430G (antibody, V domains shown)
VH: EVQLVQSGGGLVHPGGSLRLSCTGSGFTFSYHAMHWVRQAPGKGLEWVSIIGTGGVTYYADSVKGRFTISRDNVKNSLYLQMNSLRAEDMAVYYCARDYYGAGSFYDGLYGMDVWGQGTTVTVSS
VL: EIVLTQSPATLSLSPGERATLSCRASQSVSSYLAWYQQKPGQAPRLLIYDASNRATGIPARFSGSGSGTDFTLTISSLEPEDFAVYYCQQRSDWPLTFGGGTKVEIKR
modifications: Conjugated to Alexa Fluor 555 or 647 in the FRET assays only (about 3 dyes per antibody, sites not stated).
notes: IgG1 kappa with E430G (EU numbering) in the Fc; also called Hx-CD20-11B8; Hx-CD20-11B
As to B3, the binding result in test [3] and in test [4] was “binds” in each case.

B4: IgG1-CD20-11B8 (antibody, V domains shown)
VH: EVQLVQSGGGLVHPGGSLRLSCTGSGFTFSYHAMHWVRQAPGKGLEWVSIIGTGGVTYYADSVKGRFTISRDNVKNSLYLQMNSLRAEDMAVYYCARDYYGAGSFYDGLYGMDVWGQGTTVTVSS
VL: EIVLTQSPATLSLSPGERATLSCRASQSVSSYLAWYQQKPGQAPRLLIYDASNRATGIPARFSGSGSGTDFTLTISSLEPEDFAVYYCQQRSDWPLTFGGGTKVEIK
notes: Expressed as IgG1 kappa with wild type Fc; In the FRET assays it was conjugated to Alexa Fluor 555 or 647; also called WT type II CD20 antibody IgG1-CD20-11B8
Turning to B4, the binding result in test [3] is “binds”.
